Test results taken from article doi:10.1101/2024.10.18.618978v3.

System: NCCCNCCCCNCCCN
Assay: colorimetric DTNB SSAT assay
Type: biochemical, Homo sapiens
Settings: 0.25 mM AcCoA, pH 7.5, 37 °C

SAT1 (Homo sapiens)
Km: 73.10 ± 8.328 µM
